Results published in article doi:10.1101/322719.

Molecular target: Kaposi's sarcoma-associated herpesvirus (KSHV) ORF68 protein (Kaposi's sarcoma-associated herpesvirus (KSHV))
Assay: SEC

Kaposi's sarcoma-associated herpesvirus (KSHV) ORF68 protein (natural protein)
stoichiometry N: 5
